# Source: US20250059278A1 (SICHUAN HUIYU PHARMACEUTICAL, published 2025)
# T1: mouse MSLN-his (Kaika Biotech, MSL-MM180) (mouse, UniProt Q61468 298-600, limits assumed)
# T1 construct: Bought protein; also called muMSLN-his; muMSLN; not shown: his tag
# T1 sequence (looked up): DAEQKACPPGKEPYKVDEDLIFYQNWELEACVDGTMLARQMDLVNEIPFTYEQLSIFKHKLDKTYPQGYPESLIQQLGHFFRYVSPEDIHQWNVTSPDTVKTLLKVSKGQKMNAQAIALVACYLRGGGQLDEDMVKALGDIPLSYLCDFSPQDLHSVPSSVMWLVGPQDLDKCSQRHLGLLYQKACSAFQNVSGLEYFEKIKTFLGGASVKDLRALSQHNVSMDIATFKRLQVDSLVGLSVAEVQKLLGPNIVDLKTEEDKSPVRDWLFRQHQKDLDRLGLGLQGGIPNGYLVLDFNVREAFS
# Tests used:
# [1] = target: T2, huMSLN-Fc (Kaika Biotech, MSL-HM280) (human, UniProt Q13421 296-580, limits assumed); experiment: SPR chip (Carterra), 3C6 captured by anti-DYKDDDDK, huMSLN-Fc in flow
# T2 construct: Bought protein; also called huMSLN-hFc; hFc-tagged human MSLN recombinant protein; not shown: Fc (hFc) tag
# T2 sequence (Q13421 other isoform, or with tags, fused parts or gaps limits assumed): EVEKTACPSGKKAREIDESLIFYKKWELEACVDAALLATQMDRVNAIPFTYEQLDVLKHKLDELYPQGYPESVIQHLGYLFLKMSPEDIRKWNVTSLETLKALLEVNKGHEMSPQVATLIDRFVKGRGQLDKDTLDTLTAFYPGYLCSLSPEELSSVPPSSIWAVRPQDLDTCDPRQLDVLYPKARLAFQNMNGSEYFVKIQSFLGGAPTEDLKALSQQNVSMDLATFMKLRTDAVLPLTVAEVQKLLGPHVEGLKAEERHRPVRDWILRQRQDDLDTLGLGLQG
# [2] = target: T3, human MSLN-his (Kaika Biotech, MSL-HM18D) (human, UniProt Q13421 296-580, limits assumed); experiment: ELISA, coated huMSLN-his
# T3 construct: Bought protein; also called huMSLN-his; huMSLN; not shown: his tag
# [3] = target: T1, mouse MSLN-his (Kaika Biotech, …); experiment: ELISA, coated muMSLN-his
# [4] = target: T4, Human MSLN on MC38/MSLN stably transfected cells (Example 5) (human, UniProt Q13421 296-598); experiment: flow cytometry on MC38/MSLN cells
# T4 construct: whole, on cells; also called MC38/MSLN cells; huMSLN
# T4 sequence (Q13421 other isoform, or with tags, fused parts or gaps limits assumed): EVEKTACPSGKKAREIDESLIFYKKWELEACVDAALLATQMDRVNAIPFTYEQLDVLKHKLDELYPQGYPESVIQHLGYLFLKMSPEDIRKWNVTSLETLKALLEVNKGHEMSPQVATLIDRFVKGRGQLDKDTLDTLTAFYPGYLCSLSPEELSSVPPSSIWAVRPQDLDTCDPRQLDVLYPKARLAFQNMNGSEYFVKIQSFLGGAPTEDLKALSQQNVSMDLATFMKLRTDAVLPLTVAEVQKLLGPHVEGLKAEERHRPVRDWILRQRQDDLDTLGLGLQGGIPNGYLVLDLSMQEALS
# [5] = target: T5, cynoMSLN-Fc (Kaika Biotech, MSL-CM280) (cyno); experiment: SPR chip (Carterra), 3C6 captured by anti-DYKDDDDK, cynoMSLN-Fc in flow
# T5 construct: Bought protein
# [6] = target: T6, monkey MSLN-his (Kaika Biotech, MSL-CM180) (monkey (cyno)); experiment: ELISA, coated cynoMSLN-his
# T6 construct: Bought protein; also called cynoMSLN-his; cynoMSLN
binder,measurement,setting,value
"MSLN single-domain antibody 3C6 (VHH, also called MSLN VHH) VHH: EVQLVESGGGLVQAGESLRLSCAVSGNIGSIRHMGWHRQDPGKERELVATITTVGTTYYANFVKGRFTISRDNAKNTVYLQMNSLKPEDTGVYYCRATAHPTDYWGQGTQVTVSS",Kd,[1],5.66 nM
same,koff,[1],0.000304 s⁻¹
same,kon,[1],53600 M⁻¹ s⁻¹
same,EC50,[2],0.463 nM
same,EC50,[3],28.6 nM
same,EC50,[4],11.8 nM
same,Kd,[5],1.04 nM
same,koff,[5],4.69e-05 s⁻¹
same,kon,[5],45300 M⁻¹ s⁻¹
same,EC50,[6],0.788 nM
